Earlier results in paper PMC6482830.

Molecular target: eIF4E (Homo sapiens) (UniProt P06730)
Experiment: ITC

Sequence of UniProt P06730 (P06730 2-217): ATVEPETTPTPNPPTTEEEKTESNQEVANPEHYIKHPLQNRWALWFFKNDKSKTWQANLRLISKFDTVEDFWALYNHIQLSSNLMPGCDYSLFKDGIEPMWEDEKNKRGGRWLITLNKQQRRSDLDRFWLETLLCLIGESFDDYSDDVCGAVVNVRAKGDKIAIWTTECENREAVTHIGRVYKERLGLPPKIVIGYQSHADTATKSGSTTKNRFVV

4E-BP1 peptide (from UniProt Q13541)
Kd: 50 nM
